Experimental data: patent US20180282410A1 (Hoffmann-La Roche, published 2018)

T1: full-length human Robo 4 (on cells) (human, UniProt Q8WZ75 28-1007)
T1 construct: also called CHO-Robo 4; Robo 4 on HUVECs
T1 sequence: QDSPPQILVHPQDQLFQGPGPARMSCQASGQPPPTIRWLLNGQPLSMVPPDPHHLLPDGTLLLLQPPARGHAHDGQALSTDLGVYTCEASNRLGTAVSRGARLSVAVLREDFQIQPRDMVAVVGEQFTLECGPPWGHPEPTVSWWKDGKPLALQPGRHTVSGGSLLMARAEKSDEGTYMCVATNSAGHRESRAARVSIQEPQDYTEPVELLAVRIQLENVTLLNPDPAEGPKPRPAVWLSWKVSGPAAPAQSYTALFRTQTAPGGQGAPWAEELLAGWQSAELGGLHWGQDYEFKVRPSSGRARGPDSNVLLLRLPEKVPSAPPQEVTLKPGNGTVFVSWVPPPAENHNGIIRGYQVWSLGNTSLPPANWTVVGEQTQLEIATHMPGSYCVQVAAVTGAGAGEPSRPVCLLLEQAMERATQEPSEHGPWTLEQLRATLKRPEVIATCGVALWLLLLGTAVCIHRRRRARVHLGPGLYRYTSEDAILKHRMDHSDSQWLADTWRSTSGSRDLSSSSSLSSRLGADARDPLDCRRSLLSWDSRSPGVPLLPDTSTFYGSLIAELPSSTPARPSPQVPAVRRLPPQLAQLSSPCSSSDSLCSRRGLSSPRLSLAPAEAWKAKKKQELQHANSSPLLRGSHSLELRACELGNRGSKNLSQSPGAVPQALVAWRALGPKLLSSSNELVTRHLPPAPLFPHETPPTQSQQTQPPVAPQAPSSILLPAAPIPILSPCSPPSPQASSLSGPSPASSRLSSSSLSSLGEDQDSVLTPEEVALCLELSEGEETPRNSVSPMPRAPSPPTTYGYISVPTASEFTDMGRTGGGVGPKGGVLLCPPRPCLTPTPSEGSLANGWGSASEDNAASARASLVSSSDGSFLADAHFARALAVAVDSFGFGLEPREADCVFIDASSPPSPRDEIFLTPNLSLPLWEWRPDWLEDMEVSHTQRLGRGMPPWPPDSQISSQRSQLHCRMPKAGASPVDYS

T2: murine (mu) Robo 4 ECD-PreS-Avi-His (mouse)
T2 construct: also called recombinant murine Robo 4; murine Robo 4
T2 chain: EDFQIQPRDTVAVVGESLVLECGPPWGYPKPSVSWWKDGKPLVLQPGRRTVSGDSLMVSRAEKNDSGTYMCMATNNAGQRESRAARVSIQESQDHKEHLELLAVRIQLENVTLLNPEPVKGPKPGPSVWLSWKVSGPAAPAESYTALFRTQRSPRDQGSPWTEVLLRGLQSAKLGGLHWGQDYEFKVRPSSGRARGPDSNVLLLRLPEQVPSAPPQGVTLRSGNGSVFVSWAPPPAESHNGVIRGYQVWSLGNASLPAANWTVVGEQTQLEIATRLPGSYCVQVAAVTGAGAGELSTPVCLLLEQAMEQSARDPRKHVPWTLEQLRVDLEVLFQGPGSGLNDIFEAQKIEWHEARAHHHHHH

T3: human (hu) Robo 4 extracellular domain (ECD)-precision site (PreS)-Avi-tag (Avi)-6x histidine (His) (human)
T3 construct: it holds the ECD with PreScission site, Avi-tag and His-tag; also called recombinant human Robo 4; human Robo 4
T3 chain: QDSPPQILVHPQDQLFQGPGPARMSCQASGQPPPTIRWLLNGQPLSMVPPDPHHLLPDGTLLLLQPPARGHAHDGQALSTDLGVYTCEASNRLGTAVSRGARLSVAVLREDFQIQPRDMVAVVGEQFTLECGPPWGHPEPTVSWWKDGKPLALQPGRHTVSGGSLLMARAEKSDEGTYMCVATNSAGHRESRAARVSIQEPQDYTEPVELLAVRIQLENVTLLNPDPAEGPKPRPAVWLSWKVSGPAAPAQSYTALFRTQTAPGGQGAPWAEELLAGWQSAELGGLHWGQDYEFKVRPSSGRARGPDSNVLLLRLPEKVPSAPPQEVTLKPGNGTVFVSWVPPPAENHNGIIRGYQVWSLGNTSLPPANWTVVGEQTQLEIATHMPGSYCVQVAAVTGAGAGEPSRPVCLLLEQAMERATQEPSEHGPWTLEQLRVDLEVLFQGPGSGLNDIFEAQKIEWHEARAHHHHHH

B1: 01F05 anti-Robo 4 IgG (antibody, V domains shown)
VH: QVQLKQSGAELVKPGASVKISCKTSVYTFTYGYMHWVEQKPGQGLEWIGRIDPDSGNSMYNQKFQGRATLTRDKSSSTVYMELRSLTSEDSAVYYCARSMRYSGYRDYALDLWGQGTQVTVSS
VL: QLVLTQSPSASASLGASVKLTCTLSSQHSSYGITWLQQHPDKAPKYVMYLKSDGSHTKGADIPDRFSGSSSGVHRYLSISNVQPEDEAIYFCVTYDSTHVFGSGTQLTVLG
notes: also called 01F05 IgG
B2: 7G2 anti-Robo 4 IgG (antibody, V domains shown)
VH: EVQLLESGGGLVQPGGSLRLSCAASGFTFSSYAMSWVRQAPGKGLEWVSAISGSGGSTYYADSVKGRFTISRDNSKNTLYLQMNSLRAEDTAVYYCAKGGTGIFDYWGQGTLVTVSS
VL: EIVLTQSPGTLSLSPGERATLSCRASQSVSSSYLAWYQQKPGQAPRLLIYGASSRATGIPDRFSGSGSGTDFTLTISRLEPEDFAVYYCQQGQLPPRTFGQGTKVEIK
notes: also called 7G2 IgG
B3: 01E06 anti-Robo 4 IgG (antibody, V domains shown)
VH: EVQLVESGGGLSQPGNSLKLSCEASGFTFRNYDMSWVRQAPGKGLEWVAYISSGGGPIYYVDAVKGRFTISRDNAKNLLFLQMNNLRSEDTAVYYCARDLADIGVFDYWGQGTMVTVSS
VL: DFKMTQSPDILSPSLGESVTITCQSSQNIYSNLAWYQQKPGEHPKLLIYTASILADGIPSRFTGSGSGTQFSLKISSLQPDDVANYYCQQYVYYRTFGPGTKLEIK
notes: also called 01E06 IgG
B4: 01F09 anti-Robo 4 IgG (antibody, V domains shown)
VH: QIQLQESGPGLVKPSQSLSLTCSVTGYSISSGSLWTWIRQFPGNNLEWMGYISYAGGIDYNPSLTSRISITRDTSRNQFFLQLESVTTQDTATYYCATPGGYPFHFDYWGQGTMVTVSS
VL: QPVLTQSPSASASLGASVKLTCTLNSQFSTYNIGWYQQHRDKPPKYVMFVKGDGGHSKADGIPDRFSGSSSGADRYLTISNIQAEDEAIYFCGADYNNAGQYGCVFGSGTHFTVLG
notes: also called 01F09 IgG

Experiments:
[1] = biological target: T1, full-length human Robo 4 (on cells); assay: flow cytometry on CHO cells stably expressing full-length human Robo 4
Protocol: Binding of anti-Robo 4 IgGs was tested on CHO cells stably expressing full-length human Robo 4 (CHO-Robo 4). Briefly, cells were harvested, counted and checked for viability.

[2] = biological target: T2, murine (mu) Robo 4 ECD-PreS-Avi-His; assay: SPR Biacore T100, biotinylated antigen on streptavidin chip, IgG as analyte (avidity)
Protocol: (§1) All surface plasmon resonance (SPR) experiments are performed on a Biacore T100 at 25° C. with HBS-EP as running buffer (0.01 M HEPES pH 7.4, 0.15 M NaCl, 3 mM EDTA, 0.005% Surfactant P20 (Biacore)).
(§2) Determination of avidity was done by direct immobilization of biotinylated recombinant human, murine and cynomolgus Robo 4 on a Streptavidin sensor chip. Immobilization level ranged from 300 to 1000 RU. Anti-Robo 4 antibodies were passed through the flow cells for 220 s at 30 μl/min in a concentration range from 0.78-50 nM. Dissociation was monitored for 220 s. For the blank and the 25 nM injection dissociation was monitored for 600 s.
(§3) Kinetic constants were derived using the Biacore T100 Evaluation Software (vAA, Biacore), to fit rate equations for 1:1 Langmuir binding by numerical integration.

[3] = biological target: T3, human (hu) Robo 4 extracellular domain …; assay: as above
Protocol: as §1, §2, §3

Binder | EC50 [1] | Kd [2] | koff [2] | kon [2] | Kd [3] | koff [3] | kon [3]
B1 | 6.1 nM | 0.19 nM | 7.32e-05 s⁻¹ | 373000 M⁻¹ s⁻¹ | 0.093 nM | 6.13e-05 s⁻¹ | 657000 M⁻¹ s⁻¹
B2 | 4.6 nM |  |  |  | 0.421 nM | 0.000152 s⁻¹ | 361000 M⁻¹ s⁻¹
B3 | 1.1 nM | 1.07 nM | 0.000805 s⁻¹ | 750000 M⁻¹ s⁻¹ | 0.0007 nM | ~1.25e-06 s⁻¹ | 1.76e+06 M⁻¹ s⁻¹
B4 | 2.5 nM | 1.09 nM | 0.00115 s⁻¹ | 1.05e+06 M⁻¹ s⁻¹ | 0.018 nM | 3.78e-05 s⁻¹ | 2.1e+06 M⁻¹ s⁻¹
